Experimental data reported in article PMC8423358.

Target: DPP9, short isoform (DPP9S), co-expressed with CARD8 for cryo-EM, Q86TI2
Assay: cryo-EM structure
Settings: remark: other sources report otherwise

stoichiometry N: 2
B1: DPP9, short isoform (DPP9S), co-expressed with CARD8 for cryo-EM, Q86TI2-1 1-863 (enzyme)
chain: MATTGTPTADRGDAAATDDPAARFQVQKHSWDGLRSIIHGSRKYSGLIVNKAPHDFQFVQKTDESGPHSHRLYYLGMPYGSRENSLLYSEIPKKVRKEALLLLSWKQMLDHFQATPHHGVYSREEELLRERKRLGVFGITSYDFHSESGLFLFQASNSLFHCRDGGKNGFMVSPMKPLEIKTQCSGPRMDPKICPADPAFFSFINNSDLWVANIETGEERRLTFCHQGLSNVLDDPKSAGVATFVIQEEFDRFTGYWWCPTASWEGSEGLKTLRILYEEVDESEVEVIHVPSPALEERKTDSYRYPRTGSKNPKIALKLAEFQTDSQGKIVSTQEKELVQPFSSLFPKVEYIARAGWTRDGKYAWAMFLDRPQQWLQLVLLPPALFIPSTENEEQRLASARAVPRNVQPYVVYEEVTNVWINVHDIFYPFPQSEGEDELCFLRANECKTGFCHLYKVTAVLKSQGYDWSEPFSPGEDEFKCPIKEEIALTSGEWEVLARHGSKIWVNEETKLVYFQGTKDTPLEHHLYVVSYEAAGEIVRLTTPGFSHSCSMSQNFDMFVSHYSSVSTPPCVHVYKLSGPDDDPLHKQPRFWASMMEAASCPPDYVPPEIFHFHTRSDVRLYGMIYKPHALQPGKKHPTVLFVYGGPQVQLVNNSFKGIKYLRLNTLASLGYAVVVIDGRGSCQRGLRFEGALKNQMGQVEIEDQVEGLQFVAEKYGFIDLSRVAIHGWSYGGFLSLMGLIHKPQVFKVAIAGAPVTVWMAYDTGYTERYMDVPENNQHGYEAGSVALHVEKLPNEPNRLLILHGFLDENVHFFHTNFLVSQLIRAGKPYQLQIYPNERHSIRCPESGEHYEVTLLHFLQEYL
